Here are results for one molecule from patent US20220153819A1 (Regeneron, published 2022).

Assay [1] addresses T1, Influenza A group 1 HA Foldon.6×His (Influenza A virus (H1N1)).
T1 construct: also called HA-6×His; HA.6×His
Nature of the assay: SPR (Biacore 8k), 37C; HA Foldon-6xHis captured via anti-His, bsAb injected. A general note: SPR reads the build-up and loss of mass on a sensor chip optically.

Assay [2] deals with T1, Influenza A group 1 HA Foldon.6×His. Nature of the assay: SPR (Biacore 8k), 25C; HA Foldon-6xHis captured via anti-His, bsAb injected.

B1: REGN6093, anti-Influenza HA x anti-C1q bispecific antibody (bispecific antibody, V domains shown)
VH 1: QVHLVQSGPEVKKPGSSVKVSCKASGVTFISHAISWVRQAPGQGLEWVGGIIAIFGTTNYAQKFQGRVTVTTDKSTNTVYMELSRLRSEDTAIYYCARGETYYEGNFDFWGQGTLVTVSS
VH 2: EVQLVESGGGVVQPGGSLRLSCAASGFSLDDYAMHWVRQTPGKGLEWVSLISGDGSRTSYADSVKGRFTISRDNSKNSLYLKMNSLRTEDTALYYCTKDPHNSNWFDPWGQGTLVTVSS
VL: not shown
notes: also called FluA group 1 x C1q bispecific; anti-HA x anti-C1q
In assay [1], B1 gave a Kd of 519 pM, a koff of 5.15e-05 s⁻¹, a kon of 99400 M⁻¹ s⁻¹ and a t½ of 3.74 h. In addition, in assay [2], the equilibrium dissociation constant (Kd) turned out to be 1110 pM, the koff was determined as 0.000175 s⁻¹, the kon amounted to 158000 M⁻¹ s⁻¹ and the t1/2 was 1.1 h.

What is called Kd is a measure of binding affinity in units of concentration. Low values mean tighter binding, high ones weaker binding. The koff is the first-order rate constant of dissociation. The term kon denotes a measure of how fast the partners come together. One may read the t½ as how long it takes for the measured level to halve. The low end stands for rapid decline, the high end for slow decline.
